Results from the nanobody polyreactivity screen of Harvey et al. (2022).

Assay: yeast display, Sf9 membrane polyspecificity reagent, FACS + sequencing; frameworks hold sequencing errors
How it was run: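 Galactose-induced (36–48 hours) yeast carrying a synthetic nanobody display library were exposed to 10% biotinylated, detergent-solubilized Sf9 membrane reagent at 4 °C for 1 hour. FACS followed streptavidin microbead enrichment, using low and high (top ~1%) gates for expression (anti-HA) and reagent binding (streptavidin). Colony PCR, MiSeq 2 × 250 sequencing and CDR-length filtering followed. Labels for polyreactivity reflect the gate of origin.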

Sequence | polyreactivity (PSR sort gate)
QVQLVESVGGLVQAGGSLRLSCAASGSIFEYYAMGWYRQAPGKERELVAAITRSGGSTYYADSVKGRFTISRDNAKNTVYLQMNSLKPEDTAVYYCAVRGYSSYTYDEYYVGYDYWGQGTQVTVSS | low polyreactivity
QVQLVESVGGLVQAGGSLRLSCAASGSIFRVYAMGWYRQAPGKERELVATISGSAGRTYYADSVKGRFTISRDNAKNTVYLQMNSLKPEDTAVYYCAARWYKEYYWGQGTQVTVSS | high polyreactivity
QVQLVESVGGLVQAGGSLRLSCAASGSIFSPYAMGWYRQAPGKERELVAGISRDGSTYYADSVKGRFTISRDNAKNTVYLQMNSMKPEDTAVYYCAATEFRYFEGGAYFEGYYWGQGTQVTVSS | low polyreactivity
QVQLVESVGGLVQAGGSLRLSCAASGSIFSRNAMGWYRQAPGKERELVAAIRSTVSTYYADSVKGRFTISRDNAKNTVYLQMNSLKPEDTAVYYCATVTHVSPNKYYYWGQGTQVTVSS | high polyreactivity
QVQLVESVGGLVQAGGSLRLSCAASGSIFYNYAMGWYRQAPGKERELVAAISSNGGSTYYADSVKGRFTISRDIAKNTVYLQMNSLKPEDTAVYYCAARYWYPYWYRYSAYDYWGQGTQVTVSS | high polyreactivity
QVQLVESVGGLVQAGGSLRLSCAASGSIYRSYTMGWYRQAPRKEREFVAAITKRGGSTYYADSVKGRFTISRDNAKNTVYLQMISLKPEDTAVYYCAAVAGHYYYFRELGYWGQGTQVTVSS | high polyreactivity
QVQLVESVGGLVQAGGSLRLSCAASGSTFAGYAMGWYRQAPGKERELVAAISGGRTYYADSVKGRFTISRDNAKNTVYLQMNSLQPEDTAVYYCAKRYFYYTAYNAYGYWGQGTQVTVSS | high polyreactivity
QVQLVESVGGLVQAGGSLRLSCAASGSTFGTYAMGWYRQAPGKVSELVAAISNSGGSTYYADSVKGRFTISRDNAKNTVYLQMNSLKPEDTAVYYCNTDGLVRNGPFFSWGQGTQVTVSS | low polyreactivity
QVQLVESVGGLVQAGGSLRLSCAASGSTFGYNAMGWYRKAPGKERELVAGITSSGGSTYYADSVKGRFTISRDNAKNTVYLQMNSLKPEDTAVYYCAKAFYRHSSPNNSEYWGQGTQVTVSS | low polyreactivity
QVQLVESVGGLVQAGGSLRLSCAASGSTIGWNAMGWYRQAPGKERELVAAISSSGGSTNYADSVKGRFTISRDNAKNTVYLQMNCLKPEDTAVYYCAKGRRPGYGYGYWGHGTQVTVSS | low polyreactivity
QVQLVESVGGLVQAGGSLRLSCAASGSTSRFYDMGSYSQAPGKERELVAAITQSGGSTRYADSVKGRFTISRENAKNTVYLQLNSLKPEDTAVNYCAARVRGYSVTRTKPASIGGGSWGQGTQVTVSS | high polyreactivity
QVQLVESVGGLVQAGGSLRLSCAASGSTSYDYAMGWNRQAPGKERELVAAISGSSSTTYYADSVKGRFTISRDNAKNTVYLQMNSLKPEDTAVYYCNAVTTSGSGYGYWGQGTQVTVSS | low polyreactivity
QVQLVESVGGLVQAGGSLRLSCAASGVIFYFYTMGWSRQAPGKERELVAGITWSGDSTYYADSVKGRFTISRDNAKNTVYLQMNSLTPEDTAVYYCAAGFDFGTRVSKGYDYWGHGTQVTVSS | low polyreactivity
QVQLVESVGGLVQAGGSLRLSCAASVFIFRSYAMGWYRQAPGKERELVASISRRGASTYYADSVKGRFTISRDNAKNTVYLQMNSLKPEDTAVYYCNADGLRGFYTGAYDYDYWGQGTQVTVSS | high polyreactivity
QVQLVESVGGLVQAGGSLRLSCAASVNIFITNAMGWYRQAPGKERELVADISFSGGSTYYADSVKGRFTISRDTAKNTVYLQMNSLIPEDTAVYYCAARALASVSAHKYDYWGQGTQVTVSS | low polyreactivity
QVQLVESVGGLVQAGGSLRLSCAASVRTCRSNAMGWYRKAPGKEMEFVAAISISGTRTNYADSVKGRFTISRDNAKITVYLQMNSLKPEDTAVYYCARRYQIYDFFYHDLYDYWGQGTQVTVSS | low polyreactivity
QVQLVESVGGLVQAGGSLRLSCAATGRTFAWYALGWYRQAPGKERELVAAISSGGSTYYADSVKGRFTISRDNAKNTVYLQMNSLKPEDTAVYYCAAEWHYIYAYDYWGQGTQVTVSS | low polyreactivity
QVQLVESVGGLVQAGGSLRLSCADSGSIFAANAIGWFRQAPGKERELVAAISRSGNTYYADSVKGRFTISRDNAKNTVYLQMNSLKPEDTAVYYCAARRYAYGRTYGYWGQGTQVTVSS | high polyreactivity
QVQLVESVGGLVQAGGSLRLSCGASGSIFVANAMGWYIQAPGKEREFVAAITGSGGSTYYADSVKGRFTISRDNAKNTVYLQMNSLKPEDTAVYYCTGDYTVKFGYWGQGTQVTVSS | low polyreactivity
QVQLVESVGGLVQAGGSLRLSCPASGSIFKYNAMGWYRQSPGKERELVAAISSGGSTNYADSVKGRFTISRDNAKNTVYLQMNSLKPEDTAVYYCAKDRRRWYYTRDYWGQGTQVTVSS | low polyreactivity
QVQLVESVGGLVQAGGSLRLSCPASGSTFRRYAMGWYRQAPGKERELVAAITRGGITYYADSVKGRFTISRDNAKNTFYLQMNSLKPEDTAVYYCAATTFGPYALYPRYYYWGQGTQVTVSS | high polyreactivity

Sequence | polyreactivity (PSR sort gate)
QVQLVESVGGLVQAGGSLRLSCTATGSNFGYNAMGSYRQAPGKEREFVAAISWRGGSTYYADSVKGRLTISRDYAKNTVYLQMNSLKPEDTAVYYCAAVPQGSKRGYYYWGQGTQVTVSS | high polyreactivity
QVQLVESVGGLVQAGGSLRLSSAASGITFQYYDMGWYRQAPGKERELVAAIDTSGGSTYYADSVKGRFTISRDNEKNTVYLHMNSLKREDTSVYYGAACYYGYSVYGRMYYWGQGTQVTVSS | low polyreactivity
QVQLVESVGGLVQAGGSLRLTCAASGFTFDKYAMGWYRQAPGKERELVAAISNSGGRTYYADSVKGRFTISRDNAKNTVYLQMNSLKPEDTAVYYCAAVALTRRYDYWGQGTQVTVSS | high polyreactivity
QVQLVESVGGLVQAGGSLRLTCAASGFTFGPYAMGCYRQAAGKERELVAAITNRGGSTYADSVKGRFTISRDNAKNTVYLQMNSLKPEDTAVYYCATVSALEYNYWGQGTQVTVSS | low polyreactivity
QVQLVESVGGLVQAGGSLSLSCAASGSTFKQYAMGWYRQAPGKERELVAAISSRGGSTHYADSVKGRFTISRDNAKYTVYLQMNSLKPEDTAVYYCARDTDPQYSRSSDYDYWGQGTQVTVSS | low polyreactivity
QVQLVESVGGLVQAGGSLSLSCAASVFGRYAMGWYRPAPGKERELVARIYSSGGSTHYADSVKGRFTISRDNAKNTVYLQMNSLKPEDTAVYYCATGSTRWGCYYYWGQGTQVTVSS | high polyreactivity
QVQLVESVGGLVQAGGSRRLTSAASGRTFREYAMGWYRQAPWKERELVAAISDSGDSTYYADSVKGRFTISRDNAKNTVYLQMNSLKPEDTAVYYCAADYYDYEYDYWGQGTQVTVSS | low polyreactivity
QVQLVESVGGLVQAVGSLRLSCAASGRTFRHNAMGWYRQAHGKVRELVAAISSSGTNTHYADSVKGRFTISRDIAKNTVYLQMNSLQPEDTAVYYCAADRWGARRNQYHENGYWGQGTQVTVSS | high polyreactivity
QVQLVESVGGLVQEGGSLRLSCDASGSIFLYAMGWYRQAPGKERELVAAINRGGGSTYYADSVKGRFTISRDNAKNTVYLEMNSLKPEVTAVYYCAVVYLLPRYWWRYDYWGQGTQVTVSS | low polyreactivity
QVQLVESVGRLVQAGGSLRLSCAASGRIIYWNAKGWYRQAPGKERELVAGITTGGSTYYADSVKGRFTISRDNAKNTVYLQMNSLKPEDTAVYYCAARPFIRQRYGYWGKGTQVTVSS | high polyreactivity
QVQLVESVGVLVQAGGSLRLSCAASGSTFSSYAMGWYRPAPGKERELVAVISSRGTSTSYADSVKGRFTISRDNAKNTVYLQMNSLKQEDTAVYYCAASRFRWVQRYDYWGQGTQVTVSS | high polyreactivity
QVQLVESVRGLVQAGGSLRISCASSGSTFFTYPMGWYRQAPGKERELVASISIGGSTNYADSVKGRFTISRDNAKNTVYLQMNSLKPEDTAVYYCAKRYFTFGVDYDYWGQGTQVSVSS | low polyreactivity
QVQLVESVRGLVQAGGSLRLSCASSGSTFYGYTLGWYRQAPGKERELVAAISWSGGSTYYADSVKGRFTISRDNAKNTVYLQMNSLKPEDTAVFYCAARWGYSRRGYRGYDYWGQGTQVTVSS | high polyreactivity
QVQLVESVVGLVQAGGSLLISCAAYGLTFKGYAMVWYRQAPGKERELVAAITWDTGSTYYADSVKGRFSISRDNAKNTVYLQMNSLKPEDTAVYYCAAVGSTTTGVRRRGYWGHGTQVTVSS | high polyreactivity
QVQLVESVVGLVQAGGSLRLSCADSGSTFRSNAMGWYRQAPGKETELVAGITSGTSTNYADSVKGRFTISRDNAKNTVYLQMNSLKPEDTAVYYCNTDRIWYGPEYDFWGQGTQVTVSS | low polyreactivity
QVQLVESVVGLVQARGSLRLSSAATGRTFSRYAMGWYRQAPGKESELVATISWSGTSKYYADSVKGRFTISRDNAKNTVYLQMNSLKPEETAVYYCDAYYLTRFSILYYYWGLGTQVTVSS | high polyreactivity
QVQLVESWGGLDQAGGSLRLSCAASGRILRTYAMGWYRQAPGKERELVAAITWSGGSTYYADSVKGRFTISRDNAKNTVYLQMNSLKPEDTAVYDCNALTPGYRIYDYWGQGTQVTVSS | high polyreactivity
QVQLVESWGGLVQAGGILRLSCASYGFIFPIYAMGWYIQAPGKESELVALIRSGGSTYYADSVKGRFTISRDNAKNTVYLQMHSRKPEDTAVYYCKAKRYGMWGAAGRVGYDYWGQGTQVTVSS | high polyreactivity
QVQLVESWGGLVQAGGSHRLSCAASGRTFPIYAMGWYRQAPGKERELVAAITYSGGSTYYADSVKGRFTISRDNAKNTVYLQMNSLKPEDTAVYYCAVDGTKPYWHQRYDYWGQGTQVTVSS | low polyreactivity
QVQLVESWGGLVQAGGSLRISCAASGNIFRYAMGWYRQAPGKERELVAAITYRGSTTYYADSVKGRFTISCDNAKNTVYLQMISLKPEDTAVYYCAARASYTRRHVGRPYDYWGQGTQVSVSS | high polyreactivity
